Measurements as given in patent US20220282217A1, “COMPOSITIONS AND METHODS FOR PREPARING T CELL COMPOSITIONS AND USES THEREOF” (priority 2019, published 2022).

Columns and labels:
HLA-A01.01 (human) [1] = experiment: pMHC-I complex dissociation at 37 C, 125I-b2m, half-life; conditions: remark: other sources report otherwise
HLA-A02.01 (human) [2] = experiment: as above; conditions: remark: other sources report otherwise
HLA-A02.01 (human) [3] = experiment: competition vs radiolabeled reference peptide on purified MHC I, gel filtration; conditions: remark: other sources report otherwise
HLA-A01.01 (human) [4] = experiment: as above; conditions: remark: other sources report otherwise
[5] = target: HLA class I molecule A02.01; experiment: pMHC-I dissociation half-life, 125I-b2m; conditions: remark: other sources report otherwise
[6] = target: HLA class I molecule B07.02; experiment: pMHC-I dissociation half-life, 125I-b2m; conditions: remark: other sources report otherwise
[7] = target: HLA class I molecule B08.01; experiment: pMHC-I dissociation half-life, 125I-b2m; conditions: remark: other sources report otherwise
[8] = target: HLA class I molecule A02.01; experiment: competition with radiolabeled reference peptide on purified MHC I; conditions: remark: other sources report otherwise
[9] = target: HLA class I molecule B07.02; experiment: as above; conditions: remark: other sources report otherwise
[10] = target: HLA class I molecule A24.02; experiment: pMHC-I dissociation half-life, 125I-b2m; conditions: remark: other sources report otherwise
[11] = target: HLA class I molecule A24.02; experiment: competition with radiolabeled reference peptide on purified MHC I; conditions: remark: other sources report otherwise
[12] = target: HLA class I molecule B08.01; experiment: as above; conditions: remark: other sources report otherwise
HLA-A02.01 (human) [13] = experiment: competition with radiolabeled reference peptide, purified MHC I; conditions: remark: other sources report otherwise
HLA-A03.01 (human) = experiment: as above; conditions: remark: other sources report otherwise
HLA-B08.01 (human) = experiment: as above
HLA-A01.01 (human) [14] = experiment: pMHC-I dissociation half-life, 125I-b2m; conditions: remark: other sources report otherwise
HLA-A02.01 (human) [15] = experiment: pMHC-I dissociation half-life, 125I-b2m; conditions: remark: other sources report otherwise
HLA-A01.01 (human) [16] = experiment: competition with radiolabeled reference peptide, purified MHC I; conditions: remark: other sources report otherwise
HLA-B07.02 (human) [17] = experiment: pMHC-I dissociation half-life, 125I-b2m; conditions: remark: other sources report otherwise
HLA-B07.02 (human) [18] = experiment: competition with radiolabeled reference peptide, purified MHC I; conditions: remark: other sources report otherwise
[19] = target: HLA-A02:01 class I MHC molecule (human); experiment: pMHC-I dissociation at 37 C, 125I-labeled b2m, scintillation counts; conditions: remark: other sources report otherwise
[20] = target: HLA-B07:02 class I MHC molecule (human); experiment: as above; conditions: remark: other sources report otherwise
[21] = target: HLA-A02:01 class I MHC molecule (human); experiment: competition with a radiolabeled reference peptide for purified MHC I, gel filtration; 'Affinity (nM)'; conditions: remark: other sources report otherwise
[22] = target: HLA-B07:02 class I MHC molecule (human); experiment: as above; conditions: remark: other sources report otherwise
[23] = target: T1, HLA-A01.01 class I MHC molecule (prepared complex) (human); experiment: dissociation of peptide-MHC-I complex at 37 C, 125I-labelled b2m, scintillation; conditions: remark: other sources report otherwise
[24] = target: T1, HLA-A01.01 class I MHC molecule …; experiment: displacement of radiolabeled reference peptide from class I MHC, gel filtration; 'Affinity (nM)'; conditions: remark: other sources report otherwise
[25] = target: T2, HLA-A02.01 class I MHC molecule (prepared complex) (human); experiment: dissociation of peptide-MHC-I complex at 37 C, 125I-labelled b2m, scintillation; conditions: remark: other sources report otherwise
[26] = target: T2, HLA-A02.01 class I MHC molecule …; experiment: displacement of radiolabeled reference peptide from class I MHC, gel filtration; 'Affinity (nM)'; conditions: remark: other sources report otherwise
[27] = target: T3, HLA-A24.02 class I MHC molecule (prepared complex) (human); experiment: dissociation of peptide-MHC-I complex at 37 C, 125I-labelled b2m, scintillation; conditions: remark: other sources report otherwise
[28] = target: T3, HLA-A24.02 class I MHC molecule …; experiment: displacement of radiolabeled reference peptide from class I MHC, gel filtration; 'Affinity (nM)'; conditions: remark: other sources report otherwise
[29] = target: T4, HLA-B07.02 class I MHC molecule (prepared complex) (human); experiment: dissociation of peptide-MHC-I complex at 37 C, 125I-labelled b2m, scintillation; conditions: remark: other sources report otherwise
[30] = target: T4, HLA-B07.02 class I MHC molecule …; experiment: displacement of radiolabeled reference peptide from class I MHC, gel filtration; 'Affinity (nM)'; conditions: remark: other sources report otherwise

**Q.** How did the Stability (T1/2 (h)) (HLA-A01.01 (human) [1]) turn out when CLTSTVQLIM […, listing 1 of 2 here] was run?
**A.** 0 h

**Q.** And the Stability (T1/2 (h)) (HLA-A02.01 (human) [2])?
**A.** 0 h

**Q.** And the IC50 (HLA-A02.01 (human) [3])?
**A.** 716 nM

**Q.** With LTSTVQLIM as the binder, how does the IC50 (HLA-A01.01 (human) [4]) read?
**A.** 2890 nM

**Q.** With YVMAYVMAGV as the binder, how does the Stability (T1/2 (h)) [5] read?
**A.** 20.9 h

**Q.** And the Stability (T1/2 (h)) [6]?
**A.** 0 h

**Q.** And the Stability (T1/2 (h)) [7]?
**A.** 0 h

**Q.** What about the IC50 [8] of the same binder?
**A.** 57 nM

**Q.** And the IC50 [9]?
**A.** 52600 nM

**Q.** Which results are given for YVMAYVMAG?
**A.** Stability (T1/2 (h)) [5]: 2.5 h; Stability (T1/2 (h)) [6]: 0 h; Stability (T1/2 (h)) [7]: 1.2 h; IC50 [8]: 11500 nM; IC50 [9]: 170 nM

**Q.** With SLMPAHWSI as the binder, how does the Stability (T1/2 (h)) [5] read?
**A.** 5 h

**Q.** What about the Stability (T1/2 (h)) [10] of the same binder?
**A.** 0.4 h

**Q.** What about the Stability (T1/2 (h)) [6] of the same binder?
**A.** 0 h

**Q.** What about the Stability (T1/2 (h)) [7] of the same binder?
**A.** 0 h

**Q.** What about the IC50 [8] of the same binder?
**A.** 48 nM

**Q.** And the IC50 [11]?
**A.** 633 nM

**Q.** LSLMPAHWSI was tested. Which Stability (T1/2 (h)) [5] did it give?
**A.** 0.4 h

**Q.** What about the Stability (T1/2 (h)) [10] of the same binder?
**A.** 0 h

**Q.** What about the Stability (T1/2 (h)) [7] of the same binder?
**A.** 0 h

**Q.** And the IC50 [8]?
**A.** 164 nM

**Q.** And the IC50 [11]?
**A.** 12400 nM

**Q.** YLGNHMNIA was tested. Which Stability (T1/2 (h)) [5] did it give?
**A.** 0.6 h

**Q.** What about the Stability (T1/2 (h)) [7] of the same binder?
**A.** 0 h

**Q.** What about the IC50 [8] of the same binder?
**A.** 117 nM

**Q.** What about the IC50 [12] of the same binder?
**A.** 872 nM

**Q.** For SLGNHLCPL, which Stability (T1/2 (h)) [5] is on record?
**A.** 3.5 h

**Q.** What about the Stability (T1/2 (h)) [6] of the same binder?
**A.** 0 h

**Q.** And the Stability (T1/2 (h)) [7]?
**A.** 0.5 h

**Q.** And the IC50 [9]?
**A.** 2590 nM

**Q.** What about the IC50 [12] of the same binder?
**A.** 6 nM

**Q.** Which Stability (T1/2 (h)) [5] does the source give for FELLSTPPL here?
**A.** 0 h

**Q.** What about the Stability (T1/2 (h)) [7] of the same binder?
**A.** 0 h

**Q.** What about the IC50 [8] of the same binder?
**A.** 225 nM

**Q.** What about the IC50 [12] of the same binder?
**A.** 3180 nM

**Q.** How did the Stability (T1/2 (h)) [5] turn out when SQIMSLWGL was run?
**A.** 1 h

**Q.** And the Stability (T1/2 (h)) [10]?
**A.** 0 h

**Q.** What about the Stability (T1/2 (h)) [7] of the same binder?
**A.** 0 h

**Q.** And the IC50 [8]?
**A.** 62 nM

**Q.** And the IC50 [11]?
**A.** 8520 nM

**Q.** Which IC50 (HLA-A02.01 (human) [13]) does the source give for MLLRLNLRKM here?
**A.** 2510 nM

**Q.** What about the IC50 (HLA-A03.01 (human)) of the same binder?
**A.** 117 nM

**Q.** With LKKLRSPL as the binder, how does the IC50 (HLA-B08.01 (human)) read?
**A.** 0.6 nM

**Q.** Which Stability (T1/2 (h)) (HLA-A01.01 (human) [14]) does the source give for WMTETLFDIV here?
**A.** 0 h

**Q.** What about the Stability (T1/2 (h)) (HLA-A02.01 (human) [15]) of the same binder?
**A.** 0.4 h

**Q.** And the IC50 (HLA-A01.01 (human) [16])?
**A.** 14400 nM

**Q.** And the IC50 (HLA-A02.01 (human) [13])?
**A.** 40 nM

**Q.** LPRKPTRAA was tested. Which Stability (T1/2 (h)) (HLA-B07.02 (human) [17]) did it give?
**A.** 5.5 h

**Q.** What about the IC50 (HLA-B07.02 (human) [18]) of the same binder?
**A.** 8 nM

**Q.** MLTDSLFLPI was tested. Which Stability (T1/2 (h)) (HLA-A01.01 (human) [14]) did it give?
**A.** 0 h

**Q.** And the Stability (T1/2 (h)) (HLA-A02.01 (human) [15])?
**A.** 1 h

**Q.** And the IC50 (HLA-A01.01 (human) [16])?
**A.** 7670 nM

**Q.** Which Stability (half-life (hr.)) [19] does the source give for SLLNYLREM here?
**A.** 183 min

**Q.** What about the Stability (half-life (hr.)) [20] of the same binder?
**A.** 0 h

**Q.** And the IC50 [21]?
**A.** 67.7 nM

**Q.** What about the IC50 [22] of the same binder?
**A.** 866 nM

**Q.** With MANGSLLNYL as the binder, how does the Stability (half-life (hr.)) [19] read?
**A.** 0 min

**Q.** And the Stability (half-life (hr.)) [20]?
**A.** 0 h

**Q.** What about the IC50 [21] of the same binder?
**A.** 1010 nM

**Q.** What does the source list for YMANGSLLN?
**A.** Stability (half-life (hr.)) [19]: 0 min; IC50 [21]: 4000 nM

**Q.** Which results are given for LTSTVQLIM [EGFR, T790M peptide …]?
**A.** Stability (half-life (hr.)) [23]: 6.22 min; IC50 [24]: 2890 nM

**Q.** CLTSTVQLIM [EGFR_T790M peptide …, listing 2 of 2 here] was tested. Which Stability (half-life (hr.)) [23] did it give?
**A.** 0 min

**Q.** What about the Stability (half-life (hr.)) [25] of the same binder?
**A.** 0 min

**Q.** What about the IC50 [24] of the same binder?
**A.** 8280 nM

**Q.** And the IC50 [26]?
**A.** 537 nM

**Q.** How did the Stability (half-life (hr.)) [25] turn out when MQLMPFGCLL was run?
**A.** 22.9 min

**Q.** And the Stability (half-life (hr.)) [27]?
**A.** 0 h

**Q.** And the IC50 [26]?
**A.** 16.3 nM

**Q.** What about the IC50 [28] of the same binder?
**A.** 18900 nM

**Q.** With MQLMPFGCL as the binder, how does the Stability (half-life (hr.)) [25] read?
**A.** 22.1 min

**Q.** What about the Stability (half-life (hr.)) [29] of the same binder?
**A.** 0 h

**Q.** What about the IC50 [26] of the same binder?
**A.** 116 nM

**Q.** And the IC50 [30]?
**A.** 1590 nM

**Q.** Which Stability (half-life (hr.)) [25] does the source give for IMQLMPFGCL here?
**A.** 30.9 min

**Q.** What about the Stability (half-life (hr.)) [27] of the same binder?
**A.** 0 h

**Q.** And the IC50 [26]?
**A.** 653 nM

**Q.** What about the IC50 [28] of the same binder?
**A.** 14100 nM

**Q.** Which results are given for VQLIMQLMPF?
**A.** Stability (half-life (hr.)) [25]: 0 min; Stability (half-life (hr.)) [27]: 0 h; IC50 [26]: 4940 nM; IC50 [28]: 4100 nM
